Read-outs that look alike come from different tables or passages of the source.
Legend:
glucose metabolism = assay type: in vivo, dog; conditions: dogs, estimate (90% CI)
[1] = dog, in vivo
[2] = dog, in vivo, po
[3] = dog, in vivo; remark: listed apart in the source
[4] = in vivo; cited from earlier work

insulin tregopil
Mean difference (human insulin-tregopil): GIR AUC0-120 min (glucose metabolism; intraportal 3.6 pmol/kg/min): -24.1 mg/kg
Mean difference (human insulin-tregopil): NHGB, last 30 min period 1 (glucose metabolism; intraportal 3.6 pmol/kg/min): 0.53 mg/kg/min
Mean difference (human insulin-tregopil): GIR AUC120-240 min (glucose metabolism; intraportal 12.0 pmol/kg/min): -74 mg/kg
Mean difference (human insulin-tregopil): NHGB, last 30 min period 2 (glucose metabolism; intraportal 12.0 pmol/kg/min): 0.30 mg/kg/min
Mean difference (human insulin-tregopil): non-hepatic glucose uptake, last 30 min period 2 (glucose metabolism; intraportal 12.0 pmol/kg/min): -1.6 mg/kg/min
Mean difference (human insulin-tregopil): ΔNHGB, period 1 to period 2 (glucose metabolism; intraportal 3.6 then 12.0 pmol/kg/min): 0.2 mg/kg/min
Fraction extracted on first-pass by the liver [1]: one-third
Cmax of first dose compared with second dose [2]: 117%
Insulin AUC0–120 of first dose compared with second dose [2]: 118%
Mean Cmax of first dose compared with second dose [2]: 88%
tmax [2]: 20 min
Median tmax [3]: 20 min
Off-times (dog, in vivo): ≤ 120 min
tmax (dog, in vivo): ≤ 20 min
Duration of PD effect after a dose (dogs, oral dose, statement in discussion): 90 min
Time to peak concentration (tmax) [4]: 30 min

Reference: PMC6281755 (Diabetes, obesity & metabolism, 2018)
